Data: patent US20240294646A1

Tests used:
[1] = biological target: Soluble FcγRIIb extracellular domain with C-terminal 10xHis tag (UniProt P31994); assay: SPR Protocol 2; IIb-Fold relative to control v27294
[2] = biological target: Soluble FcγRIIb extracellular domain with C-terminal 10xHis tag (UniProt P31994); assay: SPR Protocol 2; IIb selectivity relative to control v27294
[3] = biological target: Soluble FcγRIIb extracellular domain with C-terminal 10xHis tag (UniProt P31994); assay: SPR Protocol 2; ratio IIb-Fold/IIaR-Fold (FcγRIIb against FcγRIIaR)
[4] = biological target: Soluble FcγRIIaR extracellular domain with C-terminal 10xHis tag (UniProt P12318); assay: SPR Protocol 2, OAA captured on HER2 chip, receptor as analyte; KD(WT v16463)/KD(variant)
[5] = biological target: Soluble FcγRIIb extracellular domain with C-terminal 10xHis tag (UniProt P31994); assay: as above
[6] = biological target: Soluble FcγRIIb extracellular domain with C-terminal 10xHis tag (UniProt P31994); assay: SPR; IIb-Fold / IIaR-Fold
[7] = biological target: Soluble FcγRIIaR extracellular domain with C-terminal 10xHis tag (UniProt P12318); assay: SPR; fold change in affinity over WT v16463
[8] = biological target: Soluble FcγRIIb extracellular domain with C-terminal 10xHis tag (UniProt P31994); assay: SPR; fold change in affinity over WT v16463
[9] = biological target: Soluble FcγRIIaR extracellular domain with C-terminal 10xHis tag (UniProt P12318); assay: SPR, antibody captured on immobilised HER2, soluble receptor as analyte
[10] = biological target: Soluble FcγRIIb extracellular domain with C-terminal 10xHis tag (UniProt P31994); assay: as above
FcγRIIb [11] = biological target: FcγRIIb (UniProt P31994); assay: SPR; ratio of IIb-fold to IIaR-fold, FcγRIIaR as comparison receptor
[12] = biological target: Recombinant human C1q (C1740, Sigma Aldrich) (human) (UniProt P02745); assay: ELISA; antibody coated on plate, human C1q added; signal as % of wild-type
FcγRIIb [13] = biological target: FcγRIIb (UniProt P31994); assay: SPR; trastuzumab FSA variant against soluble FcγRIIb; KD ratio to wild-type FSA v21653
FcγRIIaR [14] = biological target: FcγRIIaR (UniProt P12318); assay: SPR; trastuzumab FSA variant against soluble FcγRIIaR; KD ratio to wild-type FSA v21653
FcγRIIaR [15] = biological target: FcγRIIaR (UniProt P12318); assay: SPR imaging (IBIS MX96), antibody spotted on chip, soluble receptor as analyte, kinetic fit, 25 C, pH 7.4
FcγRIIb [16] = biological target: FcγRIIb (UniProt P31994); assay: as above
[17] = biological target: Biotinylated FcγRIIb extracellular domain-Fc fusion (human IgG1 Fc with L234A_L235A_D265S) (human) (UniProt P31994); assay: competition electrochemiluminescence, antibody on HER2-coated plate, biotinylated FcγRIIb-Fc; competitor FcγRIIaR-Fc at 10x
[18] = biological target: Soluble FcγRIIb extracellular domain with C-terminal 10×His tag (UniProt P31994); assay: SPR, antibody captured on HER2 chip, receptor as analyte
[19] = biological target: Soluble FcγRIIb extracellular domain with C-terminal 10xHis tag (UniProt P31994); assay: SPR (Biacore 4000), antibody captured on immobilised HER2, receptor as analyte
FcγRI = FcγRI (UniProt P12314); assay: SPR (ProteOn XPR36), antibody captured on immobilized HER2, FcγR as analyte, equilibrium fit
FcγRIIIaV = FcγRIIIaV (UniProt P08637); assay: as above
FcγRIIaR [20] = biological target: FcγRIIaR (UniProt P12318); assay: as above
FcγRIIb [21] = biological target: FcγRIIb (UniProt P31994); assay: as above
[22] = biological target: Soluble FcγRIIaR extracellular domain with C-terminal 10×His tag (UniProt P12318); assay: SPR; KD ratio against wild-type v16463
[23] = biological target: Soluble FcγRIIb extracellular domain with C-terminal 10×His tag (UniProt P31994); assay: SPR; KD ratio against wild-type v16463
[24] = biological target: Soluble FcγRIIaR extracellular domain with C-terminal 10×His tag (UniProt P12318); assay: SPR, antibody captured on HER2 chip, receptor as analyte
[25] = biological target: Soluble FcγRIIb extracellular domain with C-terminal 10×His tag (UniProt P31994); assay: SPR; ratio of IIb-Fold to IIaR-Fold (FcγRIIb against FcγRIIaR)

With “Variant 26751 (A_E272W_strat2), one-armed trastuzumab antibody with heterodimeric IgG1 Fc” the IIb-Fold wrt Control [1] was 0.6 fold, the IIb Selectivity Improvement wrt Control [2] was 0.8 fold and the IIb Selectivity (IIb-Fold/IIaR-Fold) [3] was 11.2 fold. For the same substance, the IIaR-fold (fold change in affinity over wild-type) [4] was 5.4 fold and the IIb-fold (fold change in affinity over wild-type) [5] was 60.1 fold.

With “Variant 16463, wild-type one-armed trastuzumab antibody (Scaffold 2)” the IIb Selectivity [6] was 1, the IIaR-fold [7] was 1 fold and the IIb-Fold [8] was 1 fold. The Kd [9] was 310 nM and the Kd [10] was 1400 nM.

“Variant 32292, trastuzumab full-size antibody (chain A L235D_strat2; chain B D329*I_I332L-strat1)” gave an IIb Selectivity (IIb-Fold/IIaR-Fold) (FcγRIIb [11]) of 78 fold, a C1q Binding (% WT) [12] of 2 % WT and an IIb-fold (fold change in affinity over wild-type) (FcγRIIb [13]) of 451 fold. For the same substance, the IIaR-fold (fold change in affinity over wild-type) (FcγRIIaR [14]) was 6 fold.

For “Variant 21653 (WT), anti-CD19 (4G7) full-size antibody”, the Kd (FcγRIIaR [15]) was 720 nM and the Kd (FcγRIIb [16]) was 2200 nM.

Substance “v12, IIb-specific comparator with symmetrical E233D_G237D_P238D_H268D_P271G_A330R (Mimoto et al. 2013) (antibody)” has an IIb Selectivity [6] of 80.5, an IIaR-fold [7] of 1.4 fold and an IIb-Fold [8] of 112 fold. For the same substance, the Kd [9] was 220 nM, the Kd [10] was 13 nM and the ELISA (% of non-competed FcγRIIb signal in presence of 10x FcγRIIa) [17] was 100%.

“Variant 21653 (WT), anti-CD40 (Chi Lob 7/4) full-size antibody” gave a Kd (FcγRIIaR [15]) of 560 nM and a Kd (FcγRIIb [16]) of 2100 nM.

In the case of “Variant 27362, strat3_control (A_G236N_G237A / B_G236D_G237F_S239D_S267V_H268D), one-armed trastuzumab antibody”, the Kd [18] is reported as 150 nM.

For “v27362, strat3_control (A_G236N_G237A B_G236D_G237F_S239D_S267V_H268D) (antibody)”, the Kd [19] was 150 nM.

Work on “Variant 31521 (trastuzumab full-size antibody, knobs-into-holes heterodimeric IgG1 Fc, no CH2 mutations; parental scaffold)” yielded a Kd (FcγRI) of 0.098 nM, a Kd (FcγRIIIaV) of 1890 nM and a Kd (FcγRIIaR [20]) of 2590 nM. It also gave a Kd (FcγRIIb [21]) of 7740 nM.

“Variant 16463, wild-type one-armed trastuzumab antibody with heterodimeric IgG1 Fc (Scaffold 2)” gave an IIaR-fold [22] of 1 fold, an IIb-Fold [23] of 1 fold and a Kd [24] of 310 nM. It also gave a Kd [18] of 1400 nM and an IIb Selectivity (IIb-Fold/IIaR-Fold) [25] of 1 fold.

For “Variant 26747 (A_E272V_strat2), one-armed trastuzumab antibody with heterodimeric IgG1 Fc”, the IIb-Fold wrt Control [1] was 1 fold, the IIb Selectivity Improvement wrt Control [2] was 1.1 fold and the IIb Selectivity (IIb-Fold/IIaR-Fold) [3] was 14.9 fold. For the same substance, the IIaR-fold (fold change in affinity over wild-type) [4] was 6 fold and the IIb-fold (fold change in affinity over wild-type) [5] was 89.7 fold.

With “Variant 32295, trastuzumab full-size antibody (chain A P329I_strat2; chain B D329*I_I332L-strat1)” the IIb Selectivity (IIb-Fold/IIaR-Fold) (FcγRIIb [11]) was 82 fold, the C1q Binding (% WT) [12] was -1 % WT and the IIb-fold (fold change in affinity over wild-type) (FcγRIIb [13]) was 103 fold. For the same substance, the IIaR-fold (fold change in affinity over wild-type) (FcγRIIaR [14]) was 1 fold.

In the case of “Variant 21653 (WT), anti-HER2 (trastuzumab) full-size antibody”, the Kd (FcγRIIaR [15]) is reported as 630 nM and the Kd (FcγRIIb [16]) is reported as 2000 nM.

“Variant 26752 (A_E272Y_strat2), one-armed trastuzumab antibody with heterodimeric IgG1 Fc” gave an IIb-Fold wrt Control [1] of 0.9 fold, an IIb Selectivity Improvement wrt Control [2] of 1.3 fold and an IIb Selectivity (IIb-Fold/IIaR-Fold) [3] of 17.5 fold. The IIaR-fold (fold change in affinity over wild-type) [4] was 4.6 fold and the IIb-fold (fold change in affinity over wild-type) [5] was 79.8 fold.

“Variant 32293, trastuzumab full-size antibody (chain A S267A_strat2; chain B D329*I_I332L-strat1)” was tested, and the IIb Selectivity (IIb-Fold/IIaR-Fold) (FcγRIIb [11]) was 58 fold, the C1q Binding (% WT) [12] was 2 % WT and the IIb-fold (fold change in affinity over wild-type) (FcγRIIb [13]) was 323 fold. For the same substance, the IIaR-fold (fold change in affinity over wild-type) (FcγRIIaR [14]) was 6 fold.
